Patent publication US20050032689A1, “Methods for treatment or diagnosis of disease or disorders associated with an APB domain” (New York University, priority 1994, published 2005)

Assays:
EGF receptor [1] = biological target: T1, EGF receptor (Homo sapiens, UniProt P00533); test: Binding of GST fusion proteins on glutathione-agarose beads to EGF receptor from HER14 cell lysates, immunoblot
T1 construct: expressed in transfected cells; host or cells: HER14 (NIH 3T3 cells expressing human EGF receptor)
Description: FIGS. 2A and 2B. Association of GST-Shc 1-209 with the EGF Receptor (EGFR). A, HER14 lysates from either EGF-stimulated (+) or unstimulated (−) cells (5×10^6 cells) were incubated with 3 μg of GST fusion protein immobilized on glutathione-agarose beads. The bound proteins were washed, subjected to SDS-PAGE, transferred to nitrocellulose and immunoblotted with anti-EGF receptor antibody, anti-C (anti-EGFR). HER14 lysate (4×10^5 cells) was run directly on the gel in lanes 5 and 6. B, unstimulated HER14 lysates (5×10^6 cells) were immunoprecipitated with anti-EGFR antibody (mAb 108). The immobilized receptor was then phosphorylated (+) by the addition of 5 mM MnCl2 and 50 μM ATP or left unphosphorylated (−) by adding MnCl2 alone. Bacterial lysates containing 5 μg of GST, GST-Grb7, and GST-Shc 1-209 were then diluted in 1 ml of 1% Triton X-100 lysis buffer, added to the immobilized receptor and incubated at 4° C. for 90 min. The bound proteins were washed and together with 40 μl of the post-binding supernatant separated by SDS-PAGE and transferred to nitrocellulose. The bound fractions (left panel) and supernatants (right panel) were immunoblotted with anti-GST. FIGS. 4A, 4B, 4C and 4D. Binding of Shc fragments to growth factor receptors. A, schematic diagram illustrating the Shc fragments used in binding studies. Full length murine p52^shc is indicated in (i) while (ii)-(vi) were generated as GST fusion proteins for use in receptor binding studies. B, association of various GST fusion proteins with activated EGF receptor (EGFR). Binding was performed as in FIG. 2A with the exception that all lysates were stimulated with EGF. All studies used 3 μg of fusion proteins except for the Shc SH2 where 10 μg was used. Immunoblotting was performed with anti-phosphotyrosine. C, binding of Shc fusion proteins to NIH 3T3 cells expressing a HER1/2 chimera. This chimera consists of the EGF receptor extracellular binding domain and the intracellular region of HER2/neu. After stimulation of these cells with EGF (200 ng/ml) lysates were prepared and binding as well as blotting studies were performed as in B using anti-phosphotyrosine antibody. D, binding of Shc 1-209 to TrkA. Beads containing 10 μg of GST fusion proteins Shc 1-209, phospholipase C-γ (PLC-γ) SH2 (contains both N and C SH2 domains), or GST alone were added to lysates from 2×10^7 PC12 cells stimulated with 50 ng/ml nerve growth factor (lanes 1, 2, and 4). The binding of the same amount of lysate to 2 μg of anti-TrkA antibody is shown as a positive control and to indicate the position of TrkA on the blot (lane 3). Otherwise, the binding and blotting were performed as in B using anti-phosphotyrosine antibody. […]

EGF receptor [2] = biological target: T1, EGF receptor; test: Binding of GST fusion proteins to immunoprecipitated EGF receptor phosphorylated in vitro, anti-GST blot; conditions: immunoprecipitated receptor from unstimulated cells, with or without Mn2+ and ATP
Description: FIGS. 2A and 2B. Association of GST-Shc 1-209 with the EGF Receptor (EGFR). A, HER14 lysates from either EGF-stimulated (+) or unstimulated (−) cells (5×10^6 cells) were incubated with 3 μg of GST fusion protein immobilized on glutathione-agarose beads. The bound proteins were washed, subjected to SDS-PAGE, transferred to nitrocellulose and immunoblotted with anti-EGF receptor antibody, anti-C (anti-EGFR). HER14 lysate (4×10^5 cells) was run directly on the gel in lanes 5 and 6. B, unstimulated HER14 lysates (5×10^6 cells) were immunoprecipitated with anti-EGFR antibody (mAb 108). The immobilized receptor was then phosphorylated (+) by the addition of 5 mM MnCl2 and 50 μM ATP or left unphosphorylated (−) by adding MnCl2 alone. Bacterial lysates containing 5 μg of GST, GST-Grb7, and GST-Shc 1-209 were then diluted in 1 ml of 1% Triton X-100 lysis buffer, added to the immobilized receptor and incubated at 4° C. for 90 min. The bound proteins were washed and together with 40 μl of the post-binding supernatant separated by SDS-PAGE and transferred to nitrocellulose. […]
Binding Studies—GST fusion proteins were expressed using standard techniques (Ausubel, F. M., et al. Current Protocols in Molecular Biology, (1992) Wiley Interscience, New York). Protein concentration was determined by SDS-PAGE (polyacrylamide gel electrophoresis) using bovine serum albumin as a standard. […]

EGF receptor binding compared with the Shc SH2 domain (EGF receptor [1]; 3 μg fusion protein vs 10 μg Shc SH2, EGF-stimulated lysates): comparable or superior
B1: Shc 1-209: Shc amino terminus, first 209 amino acids of murine p52Shc, generated as a GST fusion protein (protein, UniProt P98083 1-209, looked up, fragment)
chain: MDLLPPKPKYNPLRNESLSSLEEGASGSTPPEELPSPSASSLGPILPPLPGDDSPTTLCSFFPRMSNLKLANPAGGRLGPKGEPGKAAEDGEGSAGAALRDSGLLPLLQDMNKLSGGGGRRTRVEGGQLGGEEWTRHGSFVNKPTRGWLHPNDKVMGPGVSYLVRYMGCVEVLQSMRALDFNTRTQVTREAISLVCEAVPGAKGATRRR
modifications: GST fusion
notes: Shc amino terminus, first 209 amino acids of murine p52Shc, generated as a GST fusion protein
binding to EGF receptor (EGF receptor [1]; GST fusion protein, lysates of EGF-stimulated or unstimulated cells): bound only to the activated tyrosine-phosphorylated receptor
binding to EGF receptor phosphorylated in vitro (EGF receptor [2]): bound directly to phosphorylated but not non-phosphorylated receptors
